Results published in patent US20100298217A1 (published 2010).

What was measured:
[1] = molecular target: T1, mouse CSF-1R C432S/C439S mutant expressed on M-/- macrophages (M-/-.C432/439SCSF-1R cells) (mouse, UniProt P09581 20-977); test: CSF-1 binding to upregulated cells carrying the receptor, FIG. 14
T1 construct: Full-length mutant receptor, retrovirally transduced into MacCsf1r-/- cells; also called mutant CSF-1R
T1 sequence: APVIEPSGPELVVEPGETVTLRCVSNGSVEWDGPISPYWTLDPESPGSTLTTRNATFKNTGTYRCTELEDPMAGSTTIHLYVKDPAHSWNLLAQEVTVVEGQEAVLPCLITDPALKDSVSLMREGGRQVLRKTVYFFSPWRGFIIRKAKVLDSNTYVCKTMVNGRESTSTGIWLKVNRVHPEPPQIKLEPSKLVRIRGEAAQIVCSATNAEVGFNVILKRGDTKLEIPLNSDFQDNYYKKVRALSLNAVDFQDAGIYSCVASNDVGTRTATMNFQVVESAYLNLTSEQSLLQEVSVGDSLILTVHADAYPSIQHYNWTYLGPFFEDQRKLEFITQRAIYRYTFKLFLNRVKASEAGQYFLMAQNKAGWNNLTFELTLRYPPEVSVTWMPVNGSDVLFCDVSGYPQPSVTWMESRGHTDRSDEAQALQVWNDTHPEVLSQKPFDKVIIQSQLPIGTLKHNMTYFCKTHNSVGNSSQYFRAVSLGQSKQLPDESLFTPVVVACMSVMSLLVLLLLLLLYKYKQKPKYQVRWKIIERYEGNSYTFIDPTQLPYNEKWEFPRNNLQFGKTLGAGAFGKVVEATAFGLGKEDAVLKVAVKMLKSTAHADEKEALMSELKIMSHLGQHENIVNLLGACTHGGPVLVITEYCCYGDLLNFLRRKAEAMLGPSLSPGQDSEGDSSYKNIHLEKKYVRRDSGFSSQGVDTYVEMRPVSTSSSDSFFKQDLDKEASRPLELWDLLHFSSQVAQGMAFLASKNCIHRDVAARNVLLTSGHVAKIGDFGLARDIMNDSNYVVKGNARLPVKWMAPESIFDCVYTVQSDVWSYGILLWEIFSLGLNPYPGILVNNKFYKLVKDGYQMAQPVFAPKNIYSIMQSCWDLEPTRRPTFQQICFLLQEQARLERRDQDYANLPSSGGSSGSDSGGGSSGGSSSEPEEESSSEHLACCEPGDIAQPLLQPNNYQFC

[2] = molecular target: T1, mouse CSF-1R C432S/C439S mutant …; test: cell-based or functional assay

B1: purified human recombinant CSF-1 (ligand, UniProt P09603 36-253, looked up)
chain: SEYCSHMIGSGHLQSLQRLIDSQMETSCQITFEFVDQEQLKDPVCYLKKAFLLVQDIMEDTMRFRDNTPNAIAIVQLQELSLRLKSCFTKDYEEHDKACVRTFYETPLQLLEKVKNVFNETKNLLDKDWNIFSKNCNNSFAECSSQDVVTKPDCNCLYPKAIPSSDPASVSPHQPLAPSMAPVAGLTWEDSEGTEGSSLLPGEQPLHTVDPGSAKQRP
notes: also called human CSF-1; colony stimulating factor-1
[1]
  maximum CSF-1 binding relative to WT CSF-1R: ~70%
[2]
  fold decrease in CSF-1-induced tyrosine phosphorylation and ubiquitination of cells starved of CSF-1 for 24 h: ~5 fold
